T1: Soluble human α-Klotho ectodomain (αKlotho^ecto) (human, UniProt Q9UEF7 34-981)
T1 construct: also called wild-type αKlotho^ecto; soluble αKlotho
T1 sequence: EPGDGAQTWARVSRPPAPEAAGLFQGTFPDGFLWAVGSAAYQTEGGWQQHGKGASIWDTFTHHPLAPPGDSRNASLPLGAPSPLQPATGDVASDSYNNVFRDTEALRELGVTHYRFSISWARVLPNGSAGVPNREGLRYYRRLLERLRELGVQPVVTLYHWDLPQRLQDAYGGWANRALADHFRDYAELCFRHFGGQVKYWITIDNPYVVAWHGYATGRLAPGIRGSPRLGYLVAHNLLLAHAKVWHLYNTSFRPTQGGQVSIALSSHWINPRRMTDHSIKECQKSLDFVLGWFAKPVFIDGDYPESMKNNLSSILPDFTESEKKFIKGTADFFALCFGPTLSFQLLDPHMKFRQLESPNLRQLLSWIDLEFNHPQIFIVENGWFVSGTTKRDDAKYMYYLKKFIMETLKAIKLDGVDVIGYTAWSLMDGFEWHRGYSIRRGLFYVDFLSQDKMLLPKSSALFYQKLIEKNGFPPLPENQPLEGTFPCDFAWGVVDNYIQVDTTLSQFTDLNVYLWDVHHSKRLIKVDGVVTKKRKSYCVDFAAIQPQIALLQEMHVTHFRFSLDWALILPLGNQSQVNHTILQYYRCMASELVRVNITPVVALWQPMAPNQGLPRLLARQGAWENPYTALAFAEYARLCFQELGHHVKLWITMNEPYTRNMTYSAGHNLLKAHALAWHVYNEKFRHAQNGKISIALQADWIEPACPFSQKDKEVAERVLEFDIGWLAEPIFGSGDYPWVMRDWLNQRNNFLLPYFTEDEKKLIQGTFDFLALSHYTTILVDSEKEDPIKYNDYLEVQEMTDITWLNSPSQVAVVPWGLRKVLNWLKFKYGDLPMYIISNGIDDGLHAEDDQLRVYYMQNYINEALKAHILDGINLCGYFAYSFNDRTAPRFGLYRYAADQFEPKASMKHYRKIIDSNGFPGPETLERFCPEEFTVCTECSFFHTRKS

B1: FGFR1c^ecto/ΔHBS (FGFR1c^ecto carrying K160Q/K163Q) (receptor)
chain: DNTKPNRMPVAPYWTSPEQMEQKLHAVPAAKTVKFKCPSSGTPNPTLRWLKNGKEFKPDHRIGGYKVRYATWSIIMDSVVPSDKGNYTCIVENEYGSINHTYQLDVVERSPHRPILQAGLPANKTVALGSNVEFMCKVYSDPQPHIQWLKHIEVNGSKIGPDNLPYVQILKTAGVNTTDKEMEVLHLRNVSFEDAGEYTCLAGNSIGLSHHSAWLTVLEALEER
notes: also called FGFR1c^ΔHBS
B2: FGFR1c^ecto/ΔHBS′ (FGFR1c^ecto carrying K207Q/R209Q) (receptor)
chain: DNTKPNRMPVAPYWTSPEKMEKKLHAVPAAKTVKFKCPSSGTPNPTLRWLKNGKEFKPDHRIGGYQVQYATWSIIMDSVVPSDKGNYTCIVENEYGSINHTYQLDVVERSPHRPILQAGLPANKTVALGSNVEFMCKVYSDPQPHIQWLKHIEVNGSKIGPDNLPYVQILKTAGVNTTDKEMEVLHLRNVSFEDAGEYTCLAGNSIGLSHHSAWLTVLEALEER
notes: also called FGFR1c^ΔHBS′

What was measured:
[1] = target: T1, Soluble human α-Klotho ectodomain …; assay: SEC-MALS, 1:1:1 mixture with FGFR1c^ecto and αKlotho^ecto
Description: (§1) A Superdex 200 10/300 GL column (GE Healthcare, USA) was placed in-line between the HPLC pump (Waters 1525) and the HPLC UV (Waters 2998 Photodiode Array), laser light scattering, and refractive index detectors. Light scattering and refractive index detectors were calibrated following the manufacturer's guidelines. The refractive index increment (dn/dc) in which n is the refractive index and c is the concentration of the mixture of DDM and CHS in 20 mM Tris-HCl pH 8.0 buffer containing 300 mM NaCl, was determined offline using an Optilab T-rEX refractive index detector. Monomeric bovine serum albumin (#23210, Thermo Scientific, USA) was used as part of routine data quality control.
(§2) 60 ml or more of 25 mM HEPES pH 7.5 buffer containing 150 mM NaCl were passed through the system at a flow rate of 0.5 mL/min to equilibrate the Superdex 200 10/300 GL column and establish stable baselines for light scattering and refractive index detectors. Purified αKlotho^ecto, FGER1c^ecto (wild type or mutant), and FGF23 (wild type or mutant) proteins were mixed at a molar ratio of 1:1:1 and concentrated to 12.5 μM. 50 μl of protein samples with a molar equivalent of a heparin hexasaccharide (#H006, Iduron, Manchester, U.K.) were injected onto the gel filtration column, and the column eluent was continuously monitored for 280 nm absorbance, laser light scattering, and refractive index. […]

[2] = target: B2; assay: SEC-MALS of the 1:1:1 mixture with αKlotho^ecto and heparin hexasaccharide; the two proteins are seen together in the ternary complex [panel B]
Description: as §1, §2

[3] = target: B1; assay: as above
Description: as §1, §2

[4] = target: T1, Soluble human α-Klotho ectodomain …; assay: SEC-MALS, 1:1:1 mixture with FGF23 and αKlotho^ecto
Description: as §1
60 ml or more of 25 mM HEPES pH 7.5 buffer containing 150 mM NaCl were passed through the system at a flow rate of 0.5 mL/min to equilibrate the Superdex 200 10/300 GL column and establish stable baselines for light scattering and refractive index detectors. Purified αKlotho^ecto, FGER1c^ecto (wild type or mutant), and FGF23 (wild type or mutant) proteins were mixed at a molar ratio of 1:1:1 and concentrated to 12.5 μM. 50 μl of protein samples with a molar equivalent of a heparin hexasaccharide (#H006, Iduron, Manchester, U.K.) were injected onto the gel filtration column, and the column eluent was continuously monitored for 280 nm absorbance, laser light scattering, and refractive index. In a separate set of experiments, 50 μl of 1:1:1 FGF23-FGFR1c^ecto-αKlotho^ecto ternary complex at 12.5 μM concentration was mixed with heparin hexasaccharide at molar ratios of 1:0.25, 1:0.5, 1:1, or 1:2, and the mixtures were injected onto the gel filtration column. 50 μl of ternary complex without added heparin hexasaccharide were run as a control. In yet another set of experiments, αKlotho^ecto (wild type or mutant) and FGER1c^ecto were mixed at a molar ratio of 1:1, and 50 μl of concentrated protein mixtures were injected onto the gel filtration column. 50 μl of concentrated αKlotho^ecto (wild type or mutant) alone were run as a control in these experiments. The analyses were performed at ambient temperature. Data were collected every second at a flow rate of 0.5 ml/min.

binding result [4] | Binder | also measured
– | FGF23^ΔHBS (FGF23^WT carrying R140A/R143A) (ligand) YPNASPLLGSSWGGLIHLYTATARNSYHLQIHKNGHVDGAPHQTIYSALMIRSEDAGFVVITGVMSRRYLCMDFRGNIFGSHYFDPENCRFQHQTLENGYDVYHSPQYHFLVSLGAAKAAFLPGMNPPPYSQFLSRRNEIPLIHFNTPIPRQHTQSAEDDSERDPLNVLKPRARMTPAPAS | binding result [1]: binds; binding result [2]: binds; binding result [3]: binds
binds | B1 | –
binds | B2 | –
binds | FGFR1c^ecto/ΔSLBS (FGFR1c^ecto carrying I203E) (receptor, also called FGFR1c^ΔSLBS) DNTKPNRMPVAPYWTSPEKMEKKLHAVPAAKTVKFKCPSSGTPNPTLRWLKNGKEFKPDHREGGYKVRYATWSIIMDSVVPSDKGNYTCIVENEYGSINHTYQLDVVERSPHRPILQAGLPANKTVALGSNVEFMCKVYSDPQPHIQWLKHIEVNGSKIGPDNLPYVQILKTAGVNTTDKEMEVLHLRNVSFEDAGEYTCLAGNSIGLSHHSAWLTVLEALEER | –
binds | FGFR1c^ecto/ΔRRBS (FGFR1c^ecto carrying A171D) (receptor, also called FGFR1^ΔRRBS) DNTKPNRMPVAPYWTSPEKMEKKLHAVPADKTVKFKCPSSGTPNPTLRWLKNGKEFKPDHRIGGYKVRYATWSIIMDSVVPSDKGNYTCIVENEYGSINHTYQLDVVERSPHRPILQAGLPANKTVALGSNVEFMCKVYSDPQPHIQWLKHIEVNGSKIGPDNLPYVQILKTAGVNTTDKEMEVLHLRNVSFEDAGEYTCLAGNSIGLSHHSAWLTVLEALEER | –
binds | FGFR1c^ecto/ΔSLBS′ (FGFR1c^ecto carrying V221D) (receptor, also called FGFR1c^ΔSLBS′) DNTKPNRMPVAPYWTSPEKMEKKLHAVPAAKTVKFKCPSSGTPNPTLRWLKNGKEFKPDHRIGGYKVRYATWSIIMDSVDPSDKGNYTCIVENEYGSINHTYQLDVVERSPHRPILQAGLPANKTVALGSNVEFMCKVYSDPQPHIQWLKHIEVNGSKIGPDNLPYVQILKTAGVNTTDKEMEVLHLRNVSFEDAGEYTCLAGNSIGLSHHSAWLTVLEALEER | –
